{
  "source": "patent US20250339531A1",
  "about": "“DUX4 POLYPEPTIDES AND NUCLEIC ACIDS FOR TREATING INFLAMMATORY AND AUTOIMMUNE CONDITIONS” (Fred Hutchinson Cancer Center, priority 2021, published 2025)",
  "assay_in_all_cases": "anti-FLAG co-IP LC-MS, exp 4, +Dox +IFNG",
  "key": {"[1]": {"target": "14-3-3 protein sigma (Homo sapiens) (UniProt P31947)", "sequence (P31947 whole entry)": "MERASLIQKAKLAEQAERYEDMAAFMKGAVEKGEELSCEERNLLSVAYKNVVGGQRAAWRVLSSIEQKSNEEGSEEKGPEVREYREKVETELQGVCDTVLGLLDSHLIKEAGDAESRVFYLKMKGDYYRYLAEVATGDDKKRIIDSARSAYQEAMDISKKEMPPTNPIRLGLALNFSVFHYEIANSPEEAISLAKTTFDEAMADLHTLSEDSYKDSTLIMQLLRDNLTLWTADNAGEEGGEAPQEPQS"}, "[2]": {"target": "40S ribosomal protein S3 (Homo sapiens) (UniProt P23396)"}, "[3]": {"target": "40S ribosomal protein S6 (Homo sapiens) (UniProt P62753)"}, "[4]": {"target": "60 kDa heat shock protein, mitochondrial (Homo sapiens) (UniProt P10809)", "sequence (P10809 27-573 limits assumed)": "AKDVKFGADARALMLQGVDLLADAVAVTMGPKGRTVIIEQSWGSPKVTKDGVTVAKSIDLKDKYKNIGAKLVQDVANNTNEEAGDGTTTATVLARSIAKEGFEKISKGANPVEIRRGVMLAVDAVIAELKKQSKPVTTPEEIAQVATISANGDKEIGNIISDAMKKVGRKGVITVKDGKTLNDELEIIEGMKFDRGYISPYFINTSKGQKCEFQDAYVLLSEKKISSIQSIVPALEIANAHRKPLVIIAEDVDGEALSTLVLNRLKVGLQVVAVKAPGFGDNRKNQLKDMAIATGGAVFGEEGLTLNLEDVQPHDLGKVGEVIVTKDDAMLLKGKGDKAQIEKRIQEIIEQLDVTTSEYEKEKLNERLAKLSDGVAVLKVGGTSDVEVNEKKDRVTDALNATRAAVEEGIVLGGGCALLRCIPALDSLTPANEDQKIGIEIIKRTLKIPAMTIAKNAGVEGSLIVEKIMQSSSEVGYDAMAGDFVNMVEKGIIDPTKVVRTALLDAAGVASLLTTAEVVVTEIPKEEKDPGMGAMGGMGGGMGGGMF"}, "[5]": {"target": "60S ribosomal protein L11 (Homo sapiens) (UniProt P62913)"}, "[6]": {"target": "60S ribosomal protein L13 (Homo sapiens) (UniProt P26373)"}, "[7]": {"target": "ADP/ATP translocase 2 (Homo sapiens) (UniProt P05141)"}, "[8]": {"target": "AP-2 complex subunit alpha-1 (Homo sapiens) (UniProt O95782)"}, "[9]": {"target": "AP-2 complex subunit mu (Homo sapiens) (UniProt E9PFW3)"}, "[10]": {"target": "Clathrin heavy chain (Homo sapiens) (UniProt Q00610)"}, "[11]": {"target": "Coronin-1C (Homo sapiens) (UniProt Q9ULV4)"}, "Desmin (Homo sapiens)": {"target": "Desmin (Homo sapiens) (UniProt P17661)"}, "[12]": {"target": "Elongation factor 1-delta (Homo sapiens)"}, "Filamin-A (Homo sapiens)": {"target": "Filamin-A (Homo sapiens) (UniProt P21333)", "sequence (P21333 2-2647 limits assumed)": "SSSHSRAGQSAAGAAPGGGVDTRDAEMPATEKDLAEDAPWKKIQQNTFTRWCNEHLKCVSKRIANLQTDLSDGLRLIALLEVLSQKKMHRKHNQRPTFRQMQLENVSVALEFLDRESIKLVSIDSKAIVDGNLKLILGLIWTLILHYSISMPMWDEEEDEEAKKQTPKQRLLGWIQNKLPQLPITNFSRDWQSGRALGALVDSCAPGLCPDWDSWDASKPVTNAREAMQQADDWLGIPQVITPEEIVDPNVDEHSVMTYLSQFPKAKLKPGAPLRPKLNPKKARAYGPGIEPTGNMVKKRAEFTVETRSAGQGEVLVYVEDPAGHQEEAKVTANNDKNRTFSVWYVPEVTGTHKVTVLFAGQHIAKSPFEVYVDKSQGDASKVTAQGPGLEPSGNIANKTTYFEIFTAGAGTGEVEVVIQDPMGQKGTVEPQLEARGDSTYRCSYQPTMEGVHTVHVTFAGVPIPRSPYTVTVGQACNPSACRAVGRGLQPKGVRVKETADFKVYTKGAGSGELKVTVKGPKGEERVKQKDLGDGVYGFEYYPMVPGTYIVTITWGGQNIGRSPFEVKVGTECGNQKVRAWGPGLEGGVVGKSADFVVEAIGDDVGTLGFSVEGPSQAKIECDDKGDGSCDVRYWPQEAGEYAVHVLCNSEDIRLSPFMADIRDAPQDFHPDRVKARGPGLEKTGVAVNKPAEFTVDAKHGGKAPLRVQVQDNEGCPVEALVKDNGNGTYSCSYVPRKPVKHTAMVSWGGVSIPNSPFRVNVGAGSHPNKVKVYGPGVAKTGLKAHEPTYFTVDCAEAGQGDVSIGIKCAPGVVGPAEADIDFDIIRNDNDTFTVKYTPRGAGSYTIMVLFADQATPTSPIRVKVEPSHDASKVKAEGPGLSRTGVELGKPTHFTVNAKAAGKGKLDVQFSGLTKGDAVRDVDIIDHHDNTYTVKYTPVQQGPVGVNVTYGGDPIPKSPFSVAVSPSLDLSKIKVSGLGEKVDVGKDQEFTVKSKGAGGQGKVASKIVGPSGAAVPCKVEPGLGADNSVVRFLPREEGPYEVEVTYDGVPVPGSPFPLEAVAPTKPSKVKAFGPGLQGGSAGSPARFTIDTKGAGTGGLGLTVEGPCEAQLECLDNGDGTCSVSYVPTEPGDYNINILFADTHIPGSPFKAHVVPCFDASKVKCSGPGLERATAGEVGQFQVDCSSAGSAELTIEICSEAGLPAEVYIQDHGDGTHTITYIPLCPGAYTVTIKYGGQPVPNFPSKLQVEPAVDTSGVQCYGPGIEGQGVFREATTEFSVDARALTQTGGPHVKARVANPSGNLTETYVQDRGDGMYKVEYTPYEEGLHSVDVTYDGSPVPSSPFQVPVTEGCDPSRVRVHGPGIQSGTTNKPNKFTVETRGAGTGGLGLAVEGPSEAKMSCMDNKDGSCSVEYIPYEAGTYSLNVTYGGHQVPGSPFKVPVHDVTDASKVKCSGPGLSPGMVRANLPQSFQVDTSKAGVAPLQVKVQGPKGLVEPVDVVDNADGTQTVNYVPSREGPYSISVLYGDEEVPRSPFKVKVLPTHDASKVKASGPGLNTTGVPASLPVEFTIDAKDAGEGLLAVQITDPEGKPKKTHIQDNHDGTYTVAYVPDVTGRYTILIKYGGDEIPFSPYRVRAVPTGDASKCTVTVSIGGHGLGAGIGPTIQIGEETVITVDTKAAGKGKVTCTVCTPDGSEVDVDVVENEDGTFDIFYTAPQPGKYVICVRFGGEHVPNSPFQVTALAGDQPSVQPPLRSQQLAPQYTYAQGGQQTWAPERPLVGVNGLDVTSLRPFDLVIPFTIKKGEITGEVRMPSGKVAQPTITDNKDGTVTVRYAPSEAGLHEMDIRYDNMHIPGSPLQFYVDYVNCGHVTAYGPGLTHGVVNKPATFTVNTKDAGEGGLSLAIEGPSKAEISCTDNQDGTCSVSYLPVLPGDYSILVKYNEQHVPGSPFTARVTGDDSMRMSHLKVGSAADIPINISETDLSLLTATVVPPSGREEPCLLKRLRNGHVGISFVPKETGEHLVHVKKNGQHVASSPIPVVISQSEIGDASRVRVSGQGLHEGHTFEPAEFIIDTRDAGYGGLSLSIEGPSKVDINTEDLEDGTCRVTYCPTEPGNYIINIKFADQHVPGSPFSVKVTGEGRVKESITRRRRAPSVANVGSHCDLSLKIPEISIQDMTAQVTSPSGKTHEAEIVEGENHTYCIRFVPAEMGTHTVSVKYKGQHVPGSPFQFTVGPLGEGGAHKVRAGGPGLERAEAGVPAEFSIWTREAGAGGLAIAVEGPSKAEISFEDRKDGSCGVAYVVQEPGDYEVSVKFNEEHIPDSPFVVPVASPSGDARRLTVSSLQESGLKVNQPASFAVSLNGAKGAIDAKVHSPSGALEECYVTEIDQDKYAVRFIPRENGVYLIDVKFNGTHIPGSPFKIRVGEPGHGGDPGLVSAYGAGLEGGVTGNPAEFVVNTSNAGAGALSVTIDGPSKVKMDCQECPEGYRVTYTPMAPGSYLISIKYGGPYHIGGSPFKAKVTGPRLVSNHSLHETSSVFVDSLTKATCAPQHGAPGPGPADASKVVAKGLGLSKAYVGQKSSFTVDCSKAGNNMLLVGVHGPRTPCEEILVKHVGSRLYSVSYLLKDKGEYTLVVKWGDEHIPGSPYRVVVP"}, "[13]": {"target": "Heat shock cognate 71 kDa protein (Homo sapiens) (UniProt P11142)", "sequence (P11142 2-646 limits assumed)": "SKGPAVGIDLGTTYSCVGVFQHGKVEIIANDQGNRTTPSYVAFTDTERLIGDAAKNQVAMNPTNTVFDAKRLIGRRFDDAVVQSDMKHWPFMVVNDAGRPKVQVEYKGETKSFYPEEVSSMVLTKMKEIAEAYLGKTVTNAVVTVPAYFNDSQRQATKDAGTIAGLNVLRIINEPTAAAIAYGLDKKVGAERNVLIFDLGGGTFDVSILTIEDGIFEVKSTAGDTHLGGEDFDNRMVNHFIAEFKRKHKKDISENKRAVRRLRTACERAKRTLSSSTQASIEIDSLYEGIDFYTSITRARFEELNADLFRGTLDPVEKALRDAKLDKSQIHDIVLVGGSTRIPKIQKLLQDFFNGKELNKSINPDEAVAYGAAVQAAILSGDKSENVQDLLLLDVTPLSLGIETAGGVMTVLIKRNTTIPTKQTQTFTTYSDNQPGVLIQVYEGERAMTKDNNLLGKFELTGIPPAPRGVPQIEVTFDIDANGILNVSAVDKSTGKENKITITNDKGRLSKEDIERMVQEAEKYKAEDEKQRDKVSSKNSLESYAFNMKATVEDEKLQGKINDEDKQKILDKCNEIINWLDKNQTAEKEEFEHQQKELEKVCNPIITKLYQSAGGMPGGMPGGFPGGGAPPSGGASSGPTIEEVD"}, "[14]": {"target": "Heat shock protein HSP 90-beta (Homo sapiens) (UniProt P08238)"}, "[15]": {"target": "Heterogeneous nuclear ribonucleoprotein H (Homo sapiens) (UniProt G8JLB6)"}, "[16]": {"target": "Heterogeneous nuclear ribonucleoprotein K (Homo sapiens) (UniProt P61978)"}, "[17]": {"target": "Histone acetyltransferase type B catalytic subunit (Homo sapiens) (UniProt O14929)"}, "[18]": {"target": "Histone-binding protein RBBP7 (Homo sapiens) (UniProt Q16576)"}, "[19]": {"target": "Importin subunit beta-1 (Homo sapiens) (UniProt Q14974)"}, "[20]": {"target": "Neuroblast differentiation-associated protein AHNAK (Homo sapiens) (UniProt Q09666)"}, "[21]": {"target": "Nucleosome assembly protein 1-like 1 (Homo sapiens) (UniProt P55209)", "sequence (P55209 2-388 limits assumed)": "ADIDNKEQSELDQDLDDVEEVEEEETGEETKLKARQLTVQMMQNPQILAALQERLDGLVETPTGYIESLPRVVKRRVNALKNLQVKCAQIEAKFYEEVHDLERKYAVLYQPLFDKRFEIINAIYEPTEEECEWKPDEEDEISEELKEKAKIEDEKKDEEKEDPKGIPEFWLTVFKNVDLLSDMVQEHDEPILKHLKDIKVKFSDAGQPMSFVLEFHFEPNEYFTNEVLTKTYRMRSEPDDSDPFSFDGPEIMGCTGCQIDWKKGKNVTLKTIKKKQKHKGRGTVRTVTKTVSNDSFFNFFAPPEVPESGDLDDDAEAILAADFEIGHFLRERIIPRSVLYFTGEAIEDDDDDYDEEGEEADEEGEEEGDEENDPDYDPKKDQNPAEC"}, "[22]": {"target": "Plasminogen activator inhibitor 1 (Homo sapiens) (UniProt P05121)"}, "[23]": {"target": "Prostate tumor-overexpressed gene 1 protein (Homo sapiens) (UniProt Q86YD1)"}, "[24]": {"target": "Protease serine 2 preproprotein (Homo sapiens) (UniProt A6XMV9)"}, "[25]": {"target": "Protein S100-A6 (Homo sapiens) (UniProt P06703)"}, "[26]": {"target": "Protein disulfide-isomerase (Homo sapiens) (UniProt P07237)"}, "[27]": {"target": "Ras GTPase-activating protein-binding protein 1 (Homo sapiens) (UniProt Q13283)"}, "[28]": {"target": "Serine/threonine-protein phosphatase 2A 65 kDa regulatory subunit A alpha isoform (Homo sapiens) (UniProt P30153)"}, "[29]": {"target": "T-complex protein 1 subunit gamma (Homo sapiens) (UniProt P49368)"}, "[30]": {"target": "T-complex protein 1 subunit theta (Homo sapiens) (UniProt P50990)"}, "Talin-1 (Homo sapiens)": {"target": "Talin-1 (Homo sapiens) (UniProt Q9Y490)"}, "[31]": {"target": "Tubulin beta chain (Homo sapiens) (UniProt P07437)"}, "[32]": {"target": "Tubulin beta-4B chain (Homo sapiens) (UniProt P68371)", "sequence (P68371 whole entry)": "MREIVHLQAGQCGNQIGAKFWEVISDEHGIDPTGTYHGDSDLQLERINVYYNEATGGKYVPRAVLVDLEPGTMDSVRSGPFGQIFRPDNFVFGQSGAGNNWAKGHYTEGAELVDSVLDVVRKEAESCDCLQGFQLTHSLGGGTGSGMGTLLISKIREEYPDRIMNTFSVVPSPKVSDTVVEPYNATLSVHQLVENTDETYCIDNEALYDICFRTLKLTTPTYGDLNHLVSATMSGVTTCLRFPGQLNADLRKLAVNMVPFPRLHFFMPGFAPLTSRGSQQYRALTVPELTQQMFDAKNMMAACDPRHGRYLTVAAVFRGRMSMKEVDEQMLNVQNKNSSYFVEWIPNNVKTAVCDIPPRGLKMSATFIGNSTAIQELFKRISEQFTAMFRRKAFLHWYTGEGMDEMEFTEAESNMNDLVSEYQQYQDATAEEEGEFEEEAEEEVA"}, "[33]": {"target": "cAMP-dependent protein kinase type I-alpha regulatory subunit (Homo sapiens) (UniProt P10644)"}},
  "data": [
    {"substance": "i3XFLAG-NLS-CTDaa154-424", "values": [
      {"measurement": "PSMs", "setting": "[1]", "result": 6, "unit": "PSMs"},
      {"measurement": "PSMs", "setting": "[2]", "result": 11, "unit": "PSMs"},
      {"measurement": "PSMs", "setting": "[3]", "result": 2, "unit": "PSMs"},
      {"measurement": "PSMs", "setting": "[4]", "result": 5, "unit": "PSMs"},
      {"measurement": "PSMs", "setting": "[5]", "result": 3, "unit": "PSMs"},
      {"measurement": "PSMs", "setting": "[6]", "result": 2, "unit": "PSMs"},
      {"measurement": "PSMs", "setting": "[7]", "result": 6, "unit": "PSMs"},
      {"measurement": "PSMs", "setting": "[8]", "result": 2, "unit": "PSMs"},
      {"measurement": "PSMs", "setting": "[9]", "result": 3, "unit": "PSMs"},
      {"measurement": "PSMs", "setting": "[10]", "result": 28, "unit": "PSMs"},
      {"measurement": "PSMs", "setting": "[11]", "result": 7, "unit": "PSMs"},
      {"measurement": "PSMs", "setting": "Desmin (Homo sapiens)", "result": 12, "unit": "PSMs"},
      {"measurement": "PSMs", "setting": "[12]", "result": 11, "unit": "PSMs"},
      {"measurement": "PSMs", "setting": "Filamin-A (Homo sapiens)", "result": 10, "unit": "PSMs"},
      {"measurement": "PSMs", "setting": "[13]", "result": 105, "unit": "PSMs"},
      {"measurement": "PSMs", "setting": "[14]", "result": 10, "unit": "PSMs"},
      {"measurement": "PSMs", "setting": "[15]", "result": 3, "unit": "PSMs"},
      {"measurement": "PSMs", "setting": "[16]", "result": 6, "unit": "PSMs"},
      {"measurement": "PSMs", "setting": "[17]", "result": 9, "unit": "PSMs"},
      {"measurement": "PSMs", "setting": "[18]", "result": 5, "unit": "PSMs"},
      {"measurement": "PSMs", "setting": "[19]", "result": 3, "unit": "PSMs"},
      {"measurement": "PSMs", "setting": "[20]", "result": 1, "unit": "PSMs"},
      {"measurement": "PSMs", "setting": "[21]", "result": 3, "unit": "PSMs"},
      {"measurement": "PSMs", "setting": "[22]", "result": 3, "unit": "PSMs"},
      {"measurement": "PSMs", "setting": "[23]", "result": 2, "unit": "PSMs"},
      {"measurement": "PSMs", "setting": "[24]", "result": 2, "unit": "PSMs"},
      {"measurement": "PSMs", "setting": "[25]", "result": 2, "unit": "PSMs"},
      {"measurement": "PSMs", "setting": "[26]", "result": 14, "unit": "PSMs"},
      {"measurement": "PSMs", "setting": "[27]", "result": 2, "unit": "PSMs"},
      {"measurement": "PSMs", "setting": "[28]", "result": 2, "unit": "PSMs"},
      {"measurement": "PSMs", "setting": "[29]", "result": 2, "unit": "PSMs"},
      {"measurement": "PSMs", "setting": "[30]", "result": 3, "unit": "PSMs"},
      {"measurement": "PSMs", "setting": "Talin-1 (Homo sapiens)", "result": 3, "unit": "PSMs"},
      {"measurement": "PSMs", "setting": "[31]", "result": 110, "unit": "PSMs"},
      {"measurement": "PSMs", "setting": "[32]", "result": 100, "unit": "PSMs"},
      {"measurement": "PSMs", "setting": "[33]", "result": 3, "unit": "PSMs"}
    ]}
  ]
}
